This passage reports biotin-based internalisation of cell surface β1-integrin in FTC-133 cells (10 min and percentage of Rab5a early endosomes positive for β1-integrin in FTC-133 cells (confocal), reduction with 500 nM RAP against control cells results from article PMC5667986.

This assay addresses low-density lipoprotein receptor-related protein-1 (LRP-1), endogenous, human cells (human (endogenous in FTC-133)).

“β1-integrin, endogenous, human cells (from UniProt P05556 21-798) (receptor)” returned a biotin-based internalisation of cell surface β1-integrin in FTC-133 cells (10 min at 37°C), decrease with 500 nM RAP against untreated cells of 2 fold and a percentage of Rab5a early endosomes positive for β1-integrin in FTC-133 cells (confocal), reduction with 500 nM RAP against control cells of 25%.
